The target in the assay is αβ-tubulin heterodimer purified from porcine brains (porcine) (UniProt P02550). The assay is described as follows: ITC; DRP or DRPΔN (135-250 μM) injected into αβ-tubulin (20-40 μM); 25°C, 50 mM HEPES pH 7.3, 100 mM KCl, 1 mM MgCl2, 50 μM GDP.

“DRPΔN (DARPin D1 without its N-terminal ankyrin repeat) (designed binder)” yielded a Kd of 461 nM.

The values are drawn from paper PMC6251626.
